The text below walks through data of article PMC4538830.

The target in this experiment is T1, full-length recombinant His tagged CTNNBL1 (human), Q8WYA6.
T1 chain: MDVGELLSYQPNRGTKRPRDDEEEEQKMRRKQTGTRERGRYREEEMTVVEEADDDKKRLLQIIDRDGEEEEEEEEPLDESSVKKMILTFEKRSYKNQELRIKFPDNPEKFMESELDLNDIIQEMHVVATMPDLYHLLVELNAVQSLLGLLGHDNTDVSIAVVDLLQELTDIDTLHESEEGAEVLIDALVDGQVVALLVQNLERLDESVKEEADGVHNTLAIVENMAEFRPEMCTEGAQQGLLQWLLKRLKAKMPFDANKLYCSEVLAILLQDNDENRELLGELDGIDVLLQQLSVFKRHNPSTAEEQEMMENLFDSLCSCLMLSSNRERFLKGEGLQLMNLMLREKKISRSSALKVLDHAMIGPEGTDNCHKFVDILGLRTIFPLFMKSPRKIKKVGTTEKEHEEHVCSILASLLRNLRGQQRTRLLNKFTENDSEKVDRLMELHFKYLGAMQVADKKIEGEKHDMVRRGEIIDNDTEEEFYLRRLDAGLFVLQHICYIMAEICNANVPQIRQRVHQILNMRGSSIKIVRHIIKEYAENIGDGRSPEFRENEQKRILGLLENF
The experiment is described as follows: SEC-MALS; CTNNBL1 (full length or [77–563]) alone; also in high salt buffer (0.5 M NaCl) or with CWC15[80–229] added; Supplementary Figure S7. The following applies: remark: other sources report otherwise.

B1: full-length recombinant His tagged CTNNBL1, Q8WYA6 1-563 (natural protein)
chain: T1 chain
Usually stoichiometry N stands for a count of units in the complex or per binding partner. As to B1, the stoichiometry N came to 3.
